# Assay results as given in patent US20090298167A1 (Pfizer, published 2009).
# T1: human gamma common chain expressed on CHO cells (human, UniProt P31785 23-369)
# T1 construct: whole, on cells; Control protein; also called human IL-2R-γ common subunit; human gamma (γ) common chain
# T1 sequence (looked up): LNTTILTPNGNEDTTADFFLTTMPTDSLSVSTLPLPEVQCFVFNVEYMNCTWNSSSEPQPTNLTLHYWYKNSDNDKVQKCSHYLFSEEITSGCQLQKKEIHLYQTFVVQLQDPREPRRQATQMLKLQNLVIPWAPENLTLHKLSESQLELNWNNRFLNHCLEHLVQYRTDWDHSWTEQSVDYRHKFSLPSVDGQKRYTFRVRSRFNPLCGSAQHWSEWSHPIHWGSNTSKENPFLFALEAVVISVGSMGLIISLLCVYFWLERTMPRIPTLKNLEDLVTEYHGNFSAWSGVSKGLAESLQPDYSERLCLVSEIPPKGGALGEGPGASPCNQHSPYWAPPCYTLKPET
# T2: human IL-2Rβ (human, UniProt P14784 27-239)
# T2 construct: Bought
# T2 sequence (looked up): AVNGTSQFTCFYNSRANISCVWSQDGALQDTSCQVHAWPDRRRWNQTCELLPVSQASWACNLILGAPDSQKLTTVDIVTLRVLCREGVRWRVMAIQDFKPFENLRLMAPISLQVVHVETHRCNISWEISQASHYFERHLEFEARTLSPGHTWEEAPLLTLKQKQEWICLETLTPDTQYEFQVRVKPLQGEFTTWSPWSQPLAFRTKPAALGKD
# Columns and labels:
# [1] = target: T3, human IL-21R expressed on cells (human, UniProt Q9HBE5 20-538); assay: cell ELISA on transfected CHO cells, 13 nM IgG
# T3 construct: Transfected BaF3, TF1 and CHO cells; also native on primary human B and CD4+ T cells; also called hIL-21R; human IL-21R-BaF3 cells
# [2] = target: T4, rat IL-21R expressed on cells (rat); assay: cell ELISA on transfected CHO cells, 13 nM IgG
# T4 construct: whole, on cells; Transiently transfected CHO-PA-Dukx cells
# [3] = target: T1, human gamma common chain expressed on …; assay: cell ELISA on transfected CHO cells, 13 nM IgG
# [4] = target: T5, cynomolgus monkey IL-21R expressed on CHO cells (cynomolgus monkey); assay: cell ELISA on transfected CHO cells, 13 nM IgG
# T5 construct: whole, on cells
# [5] = target: T4, rat IL-21R expressed on cells; assay: cell ELISA: CHO cells transiently expressing the receptor, antibody in conditioned medium, HRP anti-human IgG, A450
# Description: (§1) A subset of binding proteins was tested for binding to rat, cynomolgus monkey, human IL-21R, or human IL-2R-γ common subunit expressed transiently on the surfaces of CHO-PA-Dukx cells. Cells were transfected 48 hr prior to the assay. On the day of the assay, cells were washed gently 5× in PBS containing 0.9 mM CaCl₂ and 0.45 mM MgCl₂ (PBS/CaMg) on an automated plate washer (Titertek, Huntsville, Ala.), and blocked for 1 hr at RT in PBS/CaMg/5% nonfat dry milk. Conditioned media from transiently expressed anti-IL-21R IgGs were serially diluted in blocking buffer and added to the cells in the blocked plates for 1 hr at RT. Cells were washed 5× with PBS/CaMg and then incubated with horseradish peroxidase-conjugated anti-human IgG for 1 hr at RT. Cells were then washed 10× in PBS/CaMg and all of the wash buffer was removed. Cells were incubated with 100 μl TMB until the color reaction reached saturation, stopped with 100 μl of 0.18 M H₂SO₄, and read at A450 on a Perkin Elmer ENVISION™ plate reader.
# [6] = target: T3, human IL-21R expressed on cells; assay: cell-based or functional assay
# [7] = target: T6, murine IL-21R expressed on cells (murine, UniProt Q9JHX3 20-529); assay: cell-based or functional assay
# [8] = target: T5, cynomolgus monkey IL-21R expressed on …; assay: cell ELISA: CHO cells transiently expressing the receptor, antibody in conditioned medium, HRP anti-human IgG, A450
# Description: as §1
# [9] = target: T6, murine IL-21R expressed on cells; assay: cell-based or functional assay; remark: listed apart in the source
# human soluble IL-4R = target: T7, human soluble IL-4R (human, UniProt P24394 26-231, limits assumed); assay: BIACORE: antibody captured on anti-human IgG, 50 nM analyte injected
# T7 construct: soluble; also called human sIL-4R
# Description: (§2) The specificity of binding of a subset of transiently expressed anti-IL-21R binding proteins (here antibodies) was tested on a BIACORE™ 2000 surface plasmon resonance instrument. Anti-human-IgG, anti-murine immunoglobulin antibodies, and murine IL-21R-H/F were immobilized onto a research-grade carboxymethyl-dextran chip (CM5) using standard amine coupling. The sensor chip surface was activated with EDC/NHS for 7 min at a flow rate of 20 μl/min. The first flow cell was used as reference surface to correct for bulk refractive index, matrix effects, and nonspecific binding. […] Remaining activated groups were blocked with 1.0 M ethanolamine (pH 8.0). The molecular weights of the anti-human IgG and the anti-murine IgG were both 150 kD, and the molecular weight of the IL-21R monomer was 27 kD.
# (§3) Conditioned media containing anti-IL-21R antibodies and antibody controls (murine anti-human IL-2Rβ and murine anti-human IL-4R(R&D Systems, Minneapolis, Minn.); human anti-human IL-13 (Wyeth, Cambridge, Mass.)) were diluted in HBS/EP buffer supplemented with 0.2% bovine serum and injected onto all four flow cells of the BIACORE™ chip, capturing 500-700 (RU) of antibody on the species-appropriate capture antibody. Following a 5 sec washing period, 50 nM solutions of a positive control protein (murine IL-21R-H/F), two human proteins related to IL-21R (human IL-2Rβ and human sIL-4R(R&D Systems)), or an unrelated His/FLAG-tagged protein (human IL-13-H/F), were injected over the captured antibodies on the chip. The association and dissociation phases were monitored for 120 and 180 sec, respectively, followed by two 5 μl injections of glycine (pH 1.5) to regenerate a fully active capturing surface. All binding experiments were done at 25° C. in HBS/EP buffer. Blank and buffer effects were subtracted for each sensorgram using double referencing.
# human IL-2Rβ = target: T2, human IL-2Rβ; assay: as above
# Description: as §2, §3
# human IL-13-His/FLAG = target: T8, human IL-13-His/FLAG (human, UniProt P35225 35-146, limits assumed); assay: as above
# T8 construct: Unrelated His/FLAG-tagged control; also called human IL-13-H/F
# Description: as §2, §3
# [10] = target: T3, human IL-21R expressed on cells; assay: cell-based or functional assay; remark: listed apart in the source
# [11] = target: T3, human IL-21R expressed on cells; assay: cell-based or functional assay; remark: listed apart in the source
# T3 sequence (Q9HBE5 20-538 limits assumed): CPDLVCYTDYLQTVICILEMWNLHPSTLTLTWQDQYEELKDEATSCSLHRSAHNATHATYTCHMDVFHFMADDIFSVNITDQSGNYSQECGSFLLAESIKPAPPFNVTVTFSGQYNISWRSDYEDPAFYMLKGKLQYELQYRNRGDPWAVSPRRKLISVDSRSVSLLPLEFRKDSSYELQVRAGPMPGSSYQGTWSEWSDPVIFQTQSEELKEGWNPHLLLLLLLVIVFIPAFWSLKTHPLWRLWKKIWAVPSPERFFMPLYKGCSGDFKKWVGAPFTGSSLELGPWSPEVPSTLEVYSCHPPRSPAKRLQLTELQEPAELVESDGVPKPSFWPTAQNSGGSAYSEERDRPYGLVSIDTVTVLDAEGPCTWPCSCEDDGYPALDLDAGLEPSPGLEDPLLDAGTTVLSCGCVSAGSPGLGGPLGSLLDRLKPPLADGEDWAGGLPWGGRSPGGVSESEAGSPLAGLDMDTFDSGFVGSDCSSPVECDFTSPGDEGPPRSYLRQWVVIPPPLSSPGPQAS
# T6 sequence (Q9JHX3 20-529 limits assumed): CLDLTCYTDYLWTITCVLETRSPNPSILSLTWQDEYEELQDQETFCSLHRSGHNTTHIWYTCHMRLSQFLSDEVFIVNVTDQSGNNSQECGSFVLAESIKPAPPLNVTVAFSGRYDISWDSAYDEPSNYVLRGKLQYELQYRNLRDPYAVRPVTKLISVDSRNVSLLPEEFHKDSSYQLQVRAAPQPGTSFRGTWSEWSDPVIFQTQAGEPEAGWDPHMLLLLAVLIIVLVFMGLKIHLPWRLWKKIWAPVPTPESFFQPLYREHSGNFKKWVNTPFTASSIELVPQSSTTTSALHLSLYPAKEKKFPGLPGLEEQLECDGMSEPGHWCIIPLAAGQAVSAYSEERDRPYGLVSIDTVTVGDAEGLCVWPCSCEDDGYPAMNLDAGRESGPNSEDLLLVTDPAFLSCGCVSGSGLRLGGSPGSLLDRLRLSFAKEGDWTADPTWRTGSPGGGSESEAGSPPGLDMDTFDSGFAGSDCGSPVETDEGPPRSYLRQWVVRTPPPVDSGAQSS
# T7 sequence (P24394 26-231 limits assumed): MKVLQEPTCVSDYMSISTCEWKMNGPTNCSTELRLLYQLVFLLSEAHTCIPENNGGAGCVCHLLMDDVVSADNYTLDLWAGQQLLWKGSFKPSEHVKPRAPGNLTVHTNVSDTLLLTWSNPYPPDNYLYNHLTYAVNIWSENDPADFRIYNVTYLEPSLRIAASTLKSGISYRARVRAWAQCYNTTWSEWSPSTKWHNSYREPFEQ
# T8 sequence (P35225 35-146 limits assumed): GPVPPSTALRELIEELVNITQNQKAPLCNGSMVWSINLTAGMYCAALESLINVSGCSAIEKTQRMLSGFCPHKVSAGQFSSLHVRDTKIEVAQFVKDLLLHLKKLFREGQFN
Binder,A450 at 13 nM Ab in cell ELISA [1],A450 at 13 nM Ab in cell ELISA [2],A450 at 13 nM Ab in cell ELISA [3],A450 at 13 nM Ab in cell ELISA [4],EC50 (read off the curve) [5],Human IL-21R-BaF3 Proliferation IC50 [6],Human IL-21R-TF1 Proliferation IC50 [6],Murine IL-21R-BaF3 Proliferation IC50 [7],EC50 (read off the curve) [8],"Neutralization of T cell Proliferation IC50 (nM), murine primary CD8+ T cells [9]",binding result (human soluble IL-4R),binding result (human IL-2Rβ),binding result (human IL-13-His/FLAG),"Neutralization of T cell Proliferation IC50 (nM), human primary CD4+ T cells [10]",Neutralization of B cell proliferation IC50 [11]
"AbG (antibody, human IgG1, V domains shown, Full-length human IgG1 / human lambda, transient, conditioned medium; Framework limits derived; also called VHP/VL18) VH: QVQLQESGPGLVKPSETLSLTCAVSGYSISSGYYWGWIRQPPGKGLEWIGSISHTGNTYYNPPLKSRVTISVDTSKNQFSLKLSSVTAADTAVYYCARGGGISRPEYWGQGTLVTVSS VL: SSELTQDPAVSVALGQTVRITCQGDSLRTYYASWYQQKPGQAPVLVIYGKHKRPSGIPDRFSGSSSGNTASLTITGAQAEDEADYYCVTRSVKGNPHVLFGGGTQLTVL",1.35 A450,1.11 A450,0.108 A450,1.3 A450,~0.8 nM,0.77 nM,3.84 nM,0.07 nM,–,–,–,–,–,–,–
"AbL (antibody, human IgG1, V domains shown, Full-length human IgG1 / human lambda, transient, conditioned medium; Framework limits derived; also called VH3/VL13) VH: QVQLQESGPGLVKPSETLSLTCAVSGYSISSGYYWGWIRQPPGKGLEWIGSISHTGNTYYNPPLKSRVTISVDTSKNQFSLKLSSVTAADTAVYYCARFMGFGRPEYWGQGTLVTVSS VL: SSELTQDPAVSVALGQTVRITCQGDSLRTYYASWYQQKPGQAPVLVIYGKHKRPSGIPDRFSGSSSGNTASLTITGAQAEDEADYYCVTRNRYGNPHVLFGGGTQLTVL",1.45 A450,1.26 A450,–,1.51 A450,–,0.68 nM,4.25 nM,0.227 nM,~0.8 nM,–,–,–,–,–,–
"AbQ (antibody, human IgG1, V domains shown, Purified form: human IgG1 double-mutant (L234A, G237A); Framework limits derived; also called VH3/VL2; VH3DM/VL2) VH: QVQLQESGPGLVKPSETLSLTCAVSGYSISSGYYWGWIRQPPGKGLEWIGSISHTGNTYYNPPLKSRVTISVDTSKNQFSLKLSSVTAADTAVYYCARFMGFGRPEYWGQGTLVTVSS VL: SSELTQDPAVSVALGQTVRITCQGDSLRTYYASWYQQKPGQAPVLVIYGKHKRPSGIPDRFSGSSSGNTASLTITGAQAEDEADYYCVARSVVGNPHVLFGGGTQLTVL",1.25 A450,1.16 A450,0.125 A450,1.31 A450,–,0.68 nM,4.62 nM,0.153 nM,~0.6 nM,0.85 nM,no binding (tested: 50 nM),no binding (tested: 50 nM),no binding (tested: 50 nM),0.08 nM,0.16 nM
